Source: the supplement of paper PMC5998384

Experiments:
HeLa Kyoto [1] = assay: thermal stability score vs G1/S (z-score of summed log2 fold changes over temperatures); higher = more thermally stable than in G1/S
HeLa Kyoto [2] = assay: melting temperature (median over replicates), in situ; higher = more thermally stable
HeLa Kyoto [3] = assay: solubility change mitosis vs G1/S (difference of NP-40 vs SDS log2 ratios) (log2 ratio difference); higher = more soluble in mitosis
HeLa Kyoto [4] = assay: solubility in G1/S (NP-40 vs SDS abundance) (log2 ratio); higher = more soluble; conditions: cell cycle stage: G1/S
[5] = cell cycle stage: early G1 (4.5 h after nocodazole release)
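Throughout, for melting temperature (median over replicates), in situ: HeLa Kyoto cells synchronized by double thymidine or nocodazole block, proteins quantified by TMT10plex mass spectrometry, three independent biological replicates.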
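Throughout, for solubility change mitosis vs G1/S (difference of NP-40 vs SDS log2 ratios): synchronized HeLa Kyoto cells (double thymidine block for G1/S, nocodazole release for mitosis), protein amounts in NP-40 versus SDS lysates quantified by mass spectrometry, three biological replicates.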
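Throughout, for solubility in G1/S (NP-40 vs SDS abundance): HeLa Kyoto cells arrested at G1/S by double thymidine block, proteins quantified by TMT10plex mass spectrometry in mild NP-40 versus SDS extracts, three biological replicates.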
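Throughout, for thermal stability score vs G1/S (z-score of summed log2 fold changes over temperatures): synchronized HeLa Kyoto cells, proteins quantified by TMT10plex mass spectrometry, three biological replicates, mitosis taken 0.5 h after nocodazole release, G1/S directly after double thymidine block.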

Substance	thermal stability score (HeLa Kyoto [1]; [5])	thermal stability score (HeLa Kyoto [1]; cell cycle stage: mitosis)	melting temperature (HeLa Kyoto [2]; cell cycle stage: mitosis) [°C]	solubility change mitosis (log2) (HeLa Kyoto [3])	solubility in G1/S (log2) (HeLa Kyoto [4])	melting temperature (HeLa Kyoto [2]; cell cycle stage: G1/S) [°C]
MGNGGRSGLQQGKGNVDGVAATPTAASASCQYRCIECNQEAKELYRDYNHGVLKITICKSCQKPVDKYIEYDPVIILINAILCKAQAYRHILFNTQINIHGKLCIFCLLCEAYLRWWQLQDSNQNTAPDDLIRYAKEWDFYRMFAIAALEQTAYFIGIFTFLWVERPMTAKKKPNFILLLKALLLSSYGKLLLIPAVIWEHDYTSVCLKLIKVFVLTSNFQAIRVTLNINRKLSFLAVLSGLLLESIMVYFFQSMEWDVGSDYAIFKSQDF [ARV1]	-0.687	-0.97	49.2	-0.0477	-0.481	
MPNIVLFSGSSHQDLSQRVADRLGLELGKVVTKKFSNQETSVEIGESVRGEDVYIIQSGCGEINDNLMELLIMINACKIASSSRVTAVIPCFPYARQDKKDKSRAPISAKLVANMLSVAGADHIITMDLHASQIQGFFDIPVDNLYAEPAVLQWIRENIAEWKNCIIVSPDAGGAKRVTSIADRLNVEFALIHKERKKANEVDRMVLVGDVKDRVAILVDDMADTCGTICHAADKLLSAGATKVYAILTHGIFSGPAISRINNAAFEAVVVTNTIPQEDKMKHCTKIQVIDISMILAEAIRRTHNGESVSYLFSHVPL [PRPS2]	3.16	2.12	55.9	-0.112	-0.014	55.1
COL4A2	0.58	-0.541	55.3	0.0703	0.038	53.4
MDRFVWTSGLLEINETLVIQQRGVRIYDGEEKIKFDAGTLLLSTHRLIWRDQKNHECCMAILLSQIVFIEEQAAGIGKSAKIVVHLHPAPPNKEPGPFQSSKNSYIKLSFKEHGQIEFYRRLSEEMTQRRWENMPVSQSLQTNRGPQPGRIRAVGIVGIERKLEEKRKETDKNISEAFEDLSKLMIKAKEMVELSKSIANKIKDKQGDITEDETIRFKSYLLSMGIANPVTRETYGSGTQYHMQLAKQLAGILQVPLEERGGIMSLTEVYCLVNRARGMELLSPEDLVNACKMLEALKLPLRLRVFDSGVMVIELQSHKEEEMVASALETVSEKGSLTSEEFAKLVGMSVLLAKERLLLAEKMGHLCRDDSVEGLRFYPNLFMTQS [VPS36]	1.41	2.15	51	-0.0782	-0.823	51.6
MRCALALSALLLLLSTPPLLPSSPSPSPSPSQNATQTTTDSSNKTAPTPASSVTIMATDTAQQSTVPTSKANEILASVKATTLGVSSDSPGTTTLAQQVSGPVNTTVARGGGSGNPTTTIESPKSTKSADTTTVATSTATAKPNTTSSQNGAEDTTNSGGKSSHSVTTDLTSTKAEHLTTPHPTSPLSPRQPTSTHPVATPTSSGHDHLMKISSSSSTVAIPGYTFTSPGMTTTLLETVFHHVSQAGLELLTSGDLPTLASQSAGITASSVISQRTQQTSSQMPASSTAPSSQETVQPTSPATALRTPTLPETMSSSPTAASTTHRYPKTPSPTVAHESNWAKCEDLETQTQSEKQLVLNLTGNTLCAGGASDEKLISLICRAVKATFNPAQDKCGIRLASVPGSQTVVVKEITIHTKLPAKDVYERLKDKWDELKEAGVSDMKLGDQGPPEEAEDRFSMPLIITIVCMASFLLLVAALYGCCHQRLSQRKDQQRLTEELQTVENGYHDNPTLEVMETSSEMQEKKVVSLNGELGDSWIVPLDNLTKDDLDEEEDTHL [PODXL]	-3.38	-2.15		-0.092	-0.214	58.6
MAPPGSSTVFLLALTIIASTWALTPTHYLTKHDVERLKASLDRPFTNLESAFYSIVGLSSLGAQVPDAKKACTYIRSNLDPSNVDSLFYAAQASQALSGCEISISNETKDLLLAAVSEDSSVTQIYHAVAALSGFGLPLASQEALSALTARLSKEETVLATVQALQTASHLSQQADLRSIVEEIEDLVARLDELGGVYLQFEEGLETTALFVAATYKLMDHVGTEPSIKEDQVIQLMNAIFSKKNFESLSEAFSVASAAAVLSHNRYHVPVVVVPEGSASDTHEQAILRLQVTNVLSQPLTQATVKLEHAKSVASRATVLQKTSFTPVGDVFELNFMNVKFSSGYYDFLVEVEGDNRYIANTVELRVKISTEVGITNVDLSTVDKDQSIAPKTTRVTYPAKAKGTFIADSHQNFALFFQLVDVNTGAELTPHQTFVRLHNQKTGQEVVFVAEPDNKNVYKFELDTSERKIEFDSASGTYTLYLIIGDATLKNPILWNVADVVIKFPEEEAPSTVLSQNLFTPKQEIQHLFREPEKRPPTVVSNTFTALILSPLLLLFALWIRIGANVSNFTFAPSTIIFHLGHAAMLGLMYVYWTQLNMFQTLKYLAILGSVTFLAGNRMLAQQAVKRTAH [RPN2]	1.07	2.44	53.7	-0.162	0.0246	54
MGTPKPRILPWLVSQLDLGQLEGVAWVNKSRTRFRIPWKHGLRQDAQQEDFGIFQAWAEATGAYVPGRDKPDLPTWKRNFRSALNRKEGLRLAEDRSKDPHDPHKIYEFVNSGVGDFSQPDTSPDTNGGGSTSDTQEDILDELLGNMVLAPLPDPGPPSLAVAPEPCPQPLRSPSLDNPTPFPNLGPSENPLKRLLVPGEEWEFEVTAFYRGRQVFQQTISCPEGLRLVGSEVGDRTLPGWPVTLPDPGMSLTDRGVMSYVRHVLSCLGGGLALWRAGQWLWAQRLGHCHTYWAVSEELLPNSGHGPDGEVPKDKEGGVFDLGPFIVDLITFTEGSGRSPRYALWFCVGESWPQDQPWTKRLVMVKVVPTCLRALVEMARVGGASSLENTVDLHISNSHPLSLTSDQYKAYLQDLVEGMDFQGPGES [IRF3]	0.111	1.23	51.7	0.174	-0.0358	51.4
